The target of one experiment is T1, mouse RANK-L (mouse, UniProt O35235 158-316, limits assumed).
T1 construct: also called murine RANK-L
T1 sequence (looked up): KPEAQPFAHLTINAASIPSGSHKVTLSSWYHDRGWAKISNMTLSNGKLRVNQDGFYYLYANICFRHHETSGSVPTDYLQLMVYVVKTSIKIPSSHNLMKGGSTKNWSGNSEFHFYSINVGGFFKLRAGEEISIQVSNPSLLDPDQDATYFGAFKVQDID
As to the kind of experiment: ELISA, set-up as for human RANK-L. Put shortly:
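Nanobodies at 500 nM to 160 pM in 1% casein/PBS incubated 1 h at room temperature; binding detected via anti-myc then anti-mouse-HRP with TMB, OD 450 nm.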

For experiment [1], the target named is T2, human RANK-L (human, UniProt O14788 140-317, limits assumed).
T2 construct: Soluble protein, used coated, biotinylated or labelled in ELISA, AlphaScreen, FMAT and Biacore; also called hRANK-L; soluble human RANK-L
T2 sequence (looked up): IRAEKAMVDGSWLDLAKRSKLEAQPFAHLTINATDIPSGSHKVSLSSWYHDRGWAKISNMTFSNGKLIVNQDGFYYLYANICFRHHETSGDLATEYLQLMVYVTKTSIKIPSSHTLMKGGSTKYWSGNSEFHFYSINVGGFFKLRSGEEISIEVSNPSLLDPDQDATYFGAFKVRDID
As to the kind of experiment: SPR Biacore 3000, hRANK-L on CM5, 100 nM Nanobody; only indicative (one concentration). On the procedure:
(§1) Binding kinetics of the humanized versions of Nanobodu RANL13 were also analysed by Surface Plasmon Resonance (Biacore 3000). […] Nanobody binding was assessed at one concentration (100 nM). Each Nanobody was injected for 4 minutes at a flow rate of 45 μl/min to allow binding to chip-bound antigen. Next, binding buffer without Nanobody was sent over the chip at the same flow rate to allow spontaneous dissociation of bound Nanobody.
On the technique in general: Surface plasmon resonance follows binding to a sensor surface in real time, without labels.

For experiment [2], the target named is T2, human RANK-L. As to the kind of experiment: FMAT, ALEXA647-hRANK-L / RANK on HEK293T cells. As to the method: HEK293T cells were transiently transfected with the plasmid expressing full length RANK using Fugene6 as described in example 3. After 24 hours aliquots of 60 μl (7.5×10³ cells) were plated into FMAT system 384-well plates (PE Biosystems, CA, US) and allowed to adhere for 24 h. After overnight adherence, culture supernatant was removed by gently tapping the plate. […] The plates were scanned after 10 hours of incubation. Cell surface fluorescence was measured by 8200 Cellular Detection System (Applied Biosystems, Foster City, Calif., US) which is a fluorescence macro-confocal, biological binding event analyzer that enables mix-and-read assays with live cells.

In experiment [3] the target is T2, human RANK-L. As to the kind of experiment: AlphaScreen, biotin-hRANK-L / RANK-huFc beads. As to the method:
To this mixture, the RANK acceptor beads and the streptavidin donor beads were added and further incubated for 1 hour at room temperature. Fluorescence was measured by reading plates on the EnVision Multilabel Plate Reader (Perkin Elmer) using an excitation wavelength of 680 nm and an emission wavelength of 520 nm.

Experiment [4] deals with T3, human RANK-L, full length, membrane-bound, expressed on HEK293T cells (human, UniProt O14788 1-317).
T3 construct: whole, on cells; also called hRANK-L
T3 sequence (looked up): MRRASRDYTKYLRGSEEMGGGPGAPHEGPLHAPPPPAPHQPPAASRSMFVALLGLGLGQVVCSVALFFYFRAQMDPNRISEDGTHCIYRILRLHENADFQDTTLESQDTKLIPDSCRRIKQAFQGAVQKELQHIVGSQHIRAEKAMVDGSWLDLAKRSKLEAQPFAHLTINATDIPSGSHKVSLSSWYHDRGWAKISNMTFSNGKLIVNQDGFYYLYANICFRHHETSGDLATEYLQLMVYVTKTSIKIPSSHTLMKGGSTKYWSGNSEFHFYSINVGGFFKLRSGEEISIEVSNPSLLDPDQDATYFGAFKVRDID
As to the kind of experiment: FACS, HEK293T with human RANK-L, 16 pM Nanobody. As to the method: (§2) Human embryonic kidney cells (HEK293T) were grown in Dulbecco's modified Eagles's medium supplemented with 10% fetal bovine serum (FBS), […] L-glutamine, 0.4 mM sodium pyruvate. […] After 48 hours, transfected cells were subjected to FACS analysis. […] Then cells were washed three times with FACS buffer. Bound Nanobodies were detected by subsequent incubations of a primary mouse anti Myc antibody (30 min at 4° C. (2 μg/ml)) and a second incubation with goat anti mouse-Phycoerythrin (PE) (Jackson Laboratories) for another 30 min at 4° C. Finally, after washing, the cells were resuspended in PBS+10% FBS+TO-PRO®-3 (5 nM) (Molecular Probes®, Invitrogen, Merelbeke, Belgium) and cell surface fluorescence expressed as mean PE fluorescence, was measured using flow cytometry.

Experiment [5] has as its target T4, cynomolgus RANK-L, full length, membrane-bound, expressed on HEK293T cells (cynomolgus monkey, UniProt A0A7N9DBU4 1-317).
T4 construct: whole, on cells; also called cyno RANK-L
T4 sequence: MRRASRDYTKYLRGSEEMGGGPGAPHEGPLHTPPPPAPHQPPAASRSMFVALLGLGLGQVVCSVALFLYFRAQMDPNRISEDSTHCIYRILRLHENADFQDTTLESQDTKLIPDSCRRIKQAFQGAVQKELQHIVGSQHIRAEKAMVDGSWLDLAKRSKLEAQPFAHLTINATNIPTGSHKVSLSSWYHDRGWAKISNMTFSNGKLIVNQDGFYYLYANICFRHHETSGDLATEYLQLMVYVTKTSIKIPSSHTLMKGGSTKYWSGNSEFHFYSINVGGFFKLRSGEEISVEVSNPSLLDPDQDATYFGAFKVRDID
As to the kind of experiment: FACS, HEK293T with cynomolgus RANK-L, 2000 pM Nanobody. As to the method: as §2
In general terms: Flow cytometry measures light scatter and fluorescence of single cells or particles in a stream.

For experiment [6], the target named is T2, human RANK-L. As to the kind of experiment: cell-based or functional assay.
For experiment [7], the target named is T2, human RANK-L. As to the kind of experiment: SPR Biacore 3000, hRANK-L on CM5, 100 nM Nanobody. As to the method: as §1

B1: RANKL13 (VHH, not shown: small tags and cut ends)
VHH: EVQLVESGGGLVQAGGSLRLSCAASGRTFRSYPMGWFRQAPGKEREFVASITGSGGSTYYADSVKGRFTISRDNAKNTVYLQMNSLRPEDTAVYSCAAYIRPDTYLSRDYRKYDYWGQGTQVTVSS
Usually Kd stands for the free concentration of one partner at which half of the binding sites on the other are occupied at equilibrium, for simple one-to-one binding. A high value points to a looser complex. The term kon denotes the second-order rate constant of association. Read a low kon as slower complex formation. For orientation: IC50 means the concentration at which inhibition is half-maximal. Low values mean greater potency in that assay, high ones weaker potency in that assay. Usually koff stands for the first-order rate constant of dissociation. A high value points to fast dissociation. Regarding B1, the binding result with mouse RANK-L is reported as “no binding (tested: 500 nM to 160 pM)”. Further, the Kd with human RANK-L [1] is 0.5 nM. In the experiment with human RANK-L [1], this molecule registered a kon of 500000 M⁻¹ s⁻¹. The half-maximal inhibitory concentration (IC50) with human RANK-L [2] amounted to 0.429 nM; in the experiment with human RANK-L [3], 0.185 nM. Moreover, the figures for the PE mean fluorescence in experiment [4] and in experiment [5] were 499 and 12400, respectively. For the same molecule, in the experiment with human RANK-L [6], the “RANK-L induced NF-kappaB activation (luciferase reporter, HEK293T cells), IC50” value stood at 6.21 nM. In the experiment with human RANK-L [7], this molecule registered a koff of 0.00025 s⁻¹.

B2: RANKL18 (VHH, not shown: small tags and cut ends)
VHH: EVQLVESGGGLVQAGGSLRLSCAASGRTFSRSAMGWFRQAPGKEREFVGFITGSGGTTYYGESVKGRFTISRDNAQNPVYLQMNSLKPEDTAVYYCGVYRRTYISSTYSESSEYDYWGQGTQVTVSS
On to B2, for which the binding result in the experiment with mouse RANK-L is given as “no binding (tested: 500 nM to 160 pM)”. In the experiment with human RANK-L [1], binding was characterised by a dissociation constant (Kd) of 0.18 nM. The molecule also displayed a kon in the experiment with human RANK-L [1] of 310000 M⁻¹ s⁻¹. Moreover, the results for the IC50 in the experiment with human RANK-L [2] and in the experiment with human RANK-L [3] were 0.552 nM and 0.146 nM, respectively. Besides, the PE mean fluorescence in experiment [4] is 218; in experiment [5], 12000. Also, the “RANK-L induced NF-kappaB activation (luciferase reporter, HEK293T cells), IC50” value with human RANK-L [6] worked out at 15.2 nM. This molecule also came in with an off-rate (koff) with human RANK-L [7] of 5.6e-05 s⁻¹.

(Values after patent US20110002929A1 (Ablynx, published 2011).)
